Measured values reported in patent US20260144854A1 (UNIVERSITY OF CHICAGO, published 2026).

T1: full length recombinant CD95 protein (FL-CD95), P25445
T1 chain: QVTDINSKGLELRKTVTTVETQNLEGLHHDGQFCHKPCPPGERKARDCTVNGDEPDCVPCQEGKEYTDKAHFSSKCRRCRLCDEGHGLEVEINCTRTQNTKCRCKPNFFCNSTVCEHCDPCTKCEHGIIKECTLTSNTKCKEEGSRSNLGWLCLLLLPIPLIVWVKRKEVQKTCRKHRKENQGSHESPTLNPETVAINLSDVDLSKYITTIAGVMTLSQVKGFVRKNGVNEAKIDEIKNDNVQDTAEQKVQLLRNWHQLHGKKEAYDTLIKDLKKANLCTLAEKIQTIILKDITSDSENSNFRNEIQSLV

T2: human neutrophil elastase (ELANE) (human, UniProt P08246 30-247)
T2 construct: Native protein: in human PMN conditioned media in the co-immunoprecipitation, purified native ELANE (Abcam) in the enzyme and cleavage assays; also called human ELANE
T2 sequence: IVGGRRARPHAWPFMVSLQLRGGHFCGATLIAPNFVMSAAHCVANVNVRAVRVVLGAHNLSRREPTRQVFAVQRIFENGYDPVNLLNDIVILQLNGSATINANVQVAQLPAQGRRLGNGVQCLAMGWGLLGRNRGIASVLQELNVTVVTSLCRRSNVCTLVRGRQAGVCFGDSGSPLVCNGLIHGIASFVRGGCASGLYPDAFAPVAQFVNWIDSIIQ

T3: human neutrophil elastase (ELANE)
T3 chain: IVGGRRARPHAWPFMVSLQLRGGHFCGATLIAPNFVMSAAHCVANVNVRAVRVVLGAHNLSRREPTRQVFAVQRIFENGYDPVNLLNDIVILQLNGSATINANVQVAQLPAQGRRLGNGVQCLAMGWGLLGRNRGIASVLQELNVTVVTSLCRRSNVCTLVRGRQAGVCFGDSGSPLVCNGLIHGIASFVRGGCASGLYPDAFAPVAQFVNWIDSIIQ

T4: C-terminal domain of CD95 (amino acids 157-320; C-CD95), P25445
T4 chain: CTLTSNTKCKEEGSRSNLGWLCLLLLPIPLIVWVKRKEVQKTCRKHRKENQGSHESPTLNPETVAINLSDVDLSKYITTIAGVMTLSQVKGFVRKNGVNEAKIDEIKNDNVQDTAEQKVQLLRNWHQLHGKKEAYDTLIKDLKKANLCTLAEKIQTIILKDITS


Legend:
[1] = target: T1, full length recombinant CD95 protein …
[2] = target: T2, human neutrophil elastase (ELANE); assay: from the inventors' studies of ECP as allosteric activator of ELANE (chromogenic substrate kinetics, FIG. 7); method of the KD not stated
[3] = target: T3, human neutrophil elastase (ELANE)
[4] = target: alpha-1-anti-trypsin (A1AT), P01009
Chain of alpha-1-anti-trypsin (A1AT), P01009 (P01009 whole entry, looked up, the tested form may be a part): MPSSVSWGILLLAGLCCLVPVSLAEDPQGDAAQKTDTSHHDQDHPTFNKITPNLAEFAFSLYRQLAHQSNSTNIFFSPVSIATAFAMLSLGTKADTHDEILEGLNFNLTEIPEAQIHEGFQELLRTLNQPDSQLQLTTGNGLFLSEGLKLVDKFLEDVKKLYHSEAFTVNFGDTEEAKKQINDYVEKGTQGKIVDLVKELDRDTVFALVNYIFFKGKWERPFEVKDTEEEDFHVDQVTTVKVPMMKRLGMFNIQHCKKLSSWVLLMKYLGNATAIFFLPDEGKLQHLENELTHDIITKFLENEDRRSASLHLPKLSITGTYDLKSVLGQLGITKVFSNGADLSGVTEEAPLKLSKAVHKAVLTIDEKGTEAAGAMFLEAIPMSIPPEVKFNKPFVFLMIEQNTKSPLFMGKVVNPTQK

[5] = target: T4, C-terminal domain of CD95 (amino acids …)

| Binder | degradation of purified CD95 [1] | other results |
| --- | --- | --- |
| proteinase 3 (PRTN3) (protein) IVGGHEAQPHSRPYMASLQMRGNPGSHFCGGTLIHPSFVLTAAHCLRDIPQRLVNVVLGAHNVRTQEPTQQHFSVAQVFLNNYDAENKLNDVLLIQLSSPANLSASVATVQLPQQDQPVPHGTQCLAMGWGRVGAHDPPAQVLQELNVTVVTFFCRPHNICTFVPRRKAGICFGDSGGPLICDGIIQGIDSFVIWGCATRLFPDFFTRVALYVDWIRSTLR | cleaved purified CD95 with an identical degradation pattern to ELANE | – |
| eosinophil cationic protein (ECP) (enzyme, also called ribonuclease 3) RPPQFTRAQWFAIQHISLNPPRCTIAMRAINNYRWRCKNQNTFLRTTFANVVNVCGNQSIRCPHNRTLNNCHRSRFRVPLLHCDLINPGAQNISNCTYADRPGRRFYVVACDNRDPRDSPRYPVVPVHLDTTI | – | Kd [2]: ~20 nM; kcat of ELANE for its substrate (chromogenic substrate activity assay) [3]: increases kcat for its substrate by 12-fold without altering KM |
| human neutrophil elastase (ELANE) (protein) IVGGRRARPHAWPFMVSLQLRGGHFCGATLIAPNFVMSAAHCVANVNVRAVRVVLGAHNLSRREPTRQVFAVQRIFENGYDPVNLLNDIVILQLNGSATINANVQVAQLPAQGRRLGNGVQCLAMGWGLLGRNRGIASVLQELNVTVVTSLCRRSNVCTLVRGRQAGVCFGDSGSPLVCNGLIHGIASFVRGGCASGLYPDAFAPVAQFVNWIDSIIQ | ELANE degrades the C-terminal domain of purified CD95 | ELANE catalytic activity (chromogenic substrate assay) [4]: loss of ELANE catalytic activity was confirmed by a chromogenic substrate assay; degradation by SDS-PAGE followed by coomassie blue staining [5]: ELANE preferentially cleaves the C-terminal domain of CD95 |
| murine neutrophil elastase (mELANE) (protein) IVGGRPARPHAWPFMASLQRRGGHFCGATLIARNFVMSAAHCVNGLNFRSVQVVLGAHDLRRQERTRQTFSVQRIFENGFDPSQLLNDIVIIQLNGSATINANVQVAQLPAQGQGVGDRTPCLAMGWGRLGTNRPSPSVLQELNVTVVTNMCRRRVNVCTLVPRRQAGICFGDSGGPLVCNNLVQGIDSFIRGGCGSGLYPDAFAPVAEFADWINSIIRSHNDHLLTHPKDREGRTN | cleaved purified CD95 with an identical degradation pattern to ELANE | – |
| cathepsin G (CTSG) (protein) IIGGRESRPHSRPYMAYLQIQSPAGQSRCGGFLVREDFVLTAAHCWGSNINVTLGAHNIQRRENTQQHITARRAIRHPQYNQRTIQNDIMLLQLSRRVRRNRNVNPVALPRAQEGLRPGTLCTVAGWGRVSMRRGTDTLREVQLRVQRDRQCLRIFGSYDPRRQICVGDRRERKAAFKGDSGGPLLCNNVAHGIVSYGKSSGVPPEVFTRVSSFLPWIRTTMRS | cleaved purified CD95 with an identical degradation pattern to ELANE | – |
